Laboratory results from the DeepSol protein solubility set.

Assay: soluble on expression in E. coli; label from the status in PepcDB or PDB records

Soluble on expression in E. coli, not soluble:
MGSDKIHHHHHHMENRIVKFKSKESAGLNLHAIPGHFATSHSHINYYVDVTSIKTRVSEAKEAAKALYTKVPHHSYIDTIVCMDGTEMIGAFLSQEIERNGLMSVNKHETIYVVSPEINNGQMLFRDNNKGAIDGKHVVLLLATTTTGETIRRAMECINYYGGMVTCIASIFSTIDEVNGVKIDKLFDDDDVVNYQTYPVTECPFCKKGLPIEAMVNGFGYSKL, MGSDKIHHHHHHMENSQQHTDFRQRLELLIGSEKPYAWAARNGLNKGSFTNMWYKGGVPRIGTAQKIAANSGCRVEWLLYGEGPMQDECAQAHDAPMPAGLPALSPLADADEHEVPAGVQEEFCFIPRYNLKASAGFGTSAAGEQPMFYMAFRRYWVKNYLNASPRNLVVISVKGDSMSGVLEDRDTILVNTAERHPGEGLFVIRIGDDIFVKQLQRLPGGAVQVKSANPLYETFTVDLSRASGEFEVIGRVVWFGRQIA, MGSDKIHHHHHHMENTIYLSSAYLAPVEYYTKLFACEKAYVEQYDNYVKQTYRNRCVIAAADGPLALTIPTEKSGTPKCLMKDVRISDHGNWRHIHWNALVAAYRNSPFFEYYADDFHVFYEKKYAFLWDYNQEICSLVCDLIDIHPHMEGTTEYCMEFVPGEVDFRETIHPKRDWREADADFCPKPYYQVFDAKYGFLPNLSIADLLFNMGPESLIVLRDSVKGINHKE, MGSDKIHHHHHHMEPEILFRKIDDLGEGPTYDERRKRVYWVDIRGKKFHYLSLENSEMKTFQSIGMISSIVPTDRDLMAATVDHGLYLIDDAGKHTLLTEVEKDQKSTRFNDGKADPFGNYVAGTMDLEEKRPIGSLYVLTGKTIRRILENLTISNGIAWNTKKKVFYHIDTPKRRVDAYSYDGKMNIERLGTAVDFRNEVGNPDGMTIDADGNLWVAHWGGNRITIHDPERQKKIDEIIFPAQNITSCVFAGNGLRDLYVSSASNGNPDDMGGSLFVVHTDYAGSKTFTFSVP, MGSDKIHHHHHHMEPIVRLENVTKNYRGVPAVKNVSFDLRKGEIHALLGENGAGKSTLTKIIAGVVDATSGKMFHKGREIAYASPHAALEAGIAMVFQETSLVPSMTVAQNLYLGTEKFLNRLRGTYIAAQQFLQSLNFPVDPNAMVATLGAAKRQMVEIARAVHHNAEIIIFDEPTATLTPEEKRHFFALIRRLKASGVSIVFISHALEEALAIADRITILRDGELVITDDTSAFDRDKIVAAMVGRTLSGQIYRQRDEARLRKAGKKVLSVQDISMSNVVRNNSFSIFEGQITGVFGLIGSGRTETFKIVSGIYKRDFLRGGAIELDDRPVRYLVPSEAVADGIVYVTEDRKSEGIFETMGIAENLFGGLLAAGREKAWVINQQEMRQLSAQWTKTLNIKAINDNARVVELSGGNQQKVVIGKGLVQQPRIVIFDEPTRGVDVGAIAEIHQIINRLADEGLAVVVISSYLPEIMNLSDRILVCRQGRIVEEYSPAEATEEKIMYAAVH, MGSDKIHHHHHHMEQDDKKLFVLDTNVLLHEPLAIYSFKEHDVVVPMTVLEELDQIKDRKRDVSRDARVAIRALEDILGGQTTPEEIVSGVPLPKREGHGDAVGSLSIFPDHQLEFTQASLPGDNNDNRIINTALHLQNQFAPRHVVLVTKDINMRLKAKGAGINLVEDYRTDQLIDDIRFLTKGFHQFEGDFWARKEHVNTETQGRHTVHRVPVKEVGEENFYTNQYLIDEDSNFCGRVLSNNDEELEILDLGRDRLLNLDAWGIKPKNVYQGMAMQALLDPDIDLVILTGPAGCGKTLLAMAAALEMVVERGLYDKVIVTRNTPEIAESIGFLPGTEEEKMAPWLAAITDTLEVLHKHDVNPSGSMNYIMDKANIQFKSINFMRGRSIQNSVVLLDECQNLTASQIKTMITRMGEGTKLICSGNLAQIDSNYLTAVTSGLTYIVERFKNFDGSANIYLNGVVRSRLAEFAEENL, MGSDKIHHHHHHMEQSMRKKNNNQINIVLNHRKKISLPAAENKTVISSETTTKHEMLQRIEEEMGKLVGMDDIKKIIKEIYAWIYVNKKRQEIGLKSEKQVLHMLFKGNPGTGKTTVARMIGKLLFEMNILSKGHLVEAERADLVGEYIGHTAQKTRDLIKKAMGGILFIDEAYSLARGGEKDFGKEAIDTLVKHMEDKQHGFVLILAGYSREMNHFLSLNPGLQSRFPFIIEFADYSVNQLLEIGKRMYEEREYQLSKEAEWKFRDHLHAVKYSSQITSFSNGRYVRNIVEKSIRTQAMRLLQEDAYDKYDLIGISSSDLMLEEETHST, MGSDKIHHHHHHMESIVSWPKPRGLARHSGRKAMSSLSSLARIALSLSLPSGLLDRGPSLRGTKFLAKAALKARFGGASQPFQMVNVGACDGALFDDVTPWLHRIAGARAMLVEPIPYNQKRLRANYPDKERFIIEPVAVTKTKGTITVHTFDAAALEAGTLPIEFIGCSSVTDTNLMSGKNAWGEADANFNKFAPHLRDIEVPSETLQTLLDRNGISHIDAFLVDCEGADWMVFEQLDLKRYRPGLIKVEVGALPATEIGQVVVKLKTAGYQVGFQAEDVWAFA, MGSDKIHHHHHHMESYYAVLDAMAAAPGDGVFAIIIDVEGSAYQKEGTWMWIEASGKTTGLLSGGCFEEAVAAHALDVLSNRQATSISFDLRAEDDWSWGQGAGCNGLVRIWLEPVTSNTKPDWLALKRCLDRGEHVFMARSITDPREQPFFQSETGERFGGYSSPPRPEWLKELHGTPFFRGRNGVYETEEDTFFIQHFWPKPRLTIFGAGPDAPPLVSAAKAAGFSVTVSDWRPAFCQPSHVPDADAWVVGFPHETIPKLHLTERDFVVIMTHQFERDRELMRWLADIPLAYLGVLGPRRRTDRLFPSGTAPPFVRSPIGLPIGARSPHEIAISITAELINVLRGGPMETAR, MGSDKIHHHHHHMETQNKPTVTDIDRPILVPPGGHKKVLLHSCCAPCSGEVMEAMLASGIDYTIYFYNPNIHPHKEYMLRKEENVRFAEKFGIPFIDKDDDYENDRKEWFAKAKGMEFEPERGIRCTMCFDMRFEKAAQYAHEHGFPVFTSSLGISRWKNMNQINDCGRRAAAPYDDVVYWDFNWRKGGGSARMIEISKRENFYQQEYCGCAYSLRDSNAHRKSQGRIPIKLGVLYYGDESTQYEPAPIRVDK, MGSDKIHHHHHHMEVEIVERNAFTAVGKKRTFSVENDAQKEKISQFWQEVNANGDAERINELAEFATIDGILGVCQMNGDQMDYYIAIESELTPPADMEKLTIPASKWAIFKSVGPLPNAIQKVWEYIYGEWFQTCNYTHGNAPELEVYTEGDTTAVDYYSEVWIPVVEKD, MGSDKIHHHHHHMEVFVLGCAGSGKSTFVRSFSEFLQERGYSVKCVNLDPASDPAYRADKNVREFVKTENVMVEYGLGVNGALIKSVEIASEHAEELKAEGDFVLYDTPGQLELFIYSEAGRKFVRELSGSFSCSLFLVDLTTVTDPESLLSAIMQDVIVSLRLSLPTLTAFTKSDVADVDVRSLLGEIKHREGVLAELMEKLVDFIELTTIPYRPIKISNIKKTGYEELFSALYELFCAAET, MGSDKIHHHHHHMFDDADDIDTETVEEWEASAEFGLLYTSGNTETESLKGKFTASRDVQNWRHKGVFDYYTSEQKDQDTGEMNETADRIFISAQSNYKFDPDSRDSLFVFGSYEEDEFSGFAYQATVATGYGARYRYDEDIYADYEIGPGYSRTKPVQVEGEPPVESDGSMILRLAGSLNWKISENSRFSALLSSEVGEDNTKSKAELSVSANINSALAMKVSLGANHNSHVADESIEKLDTETAVTLVYSF, MGSDKIHHHHHHMFDWENVRHFLAVARIGTLSGAARSLKVDHATVSRRLSALEDEIKTRLIERLPRACKLTLIGQRVFELAQGMEEDAYAIERFVDASRSPLSGKVSLSAPPVLVAHFLAKHLADFRRVHPGVQLSVSGEARQISLSRREADVALRLVRPEEGTSVVRKLGRMSFDLYASRDYPHLHNPSAWEFISYDAGFTDMPQQKWLMSVARGRPIACEISDINGHLAATQAGAGVAGLPDFLADTDAKLQRVAYDGEPFSRDIWLAVHRDLRRSPHVRAVMDFLLKIVKENPAFTISG, MGSDKIHHHHHHMFIDKQTVERHFSKSAHLYDGVNHVQRKMAHRLVQLLDEKRRDAKDEPRAILDIGCGTGWLTRECLKSFPQATIDAVDLSKQMLEVAEKNVSSHPNVQFIQGDIEKMVREKPSAKTYDVIVANAVFQWLDKPTETVAQLRSWLKPNGLLLFSTFGPDTFYELHDSFQLAAKQLGIIDERRGLDYLSKTEWKRTLDGLFAELTIHEEKAIESYATVEQFLHTVKKMGATYSQSSRPLSKRYYQLMKEIYEQRYRTEDSIPATYDCLYVLCQA, MGSDKIHHHHHHMFKKVAADVLGLSDVGSVITPKDYDKVDADDYVMHEDGEKIYFLIKSKSDEYCFTNKGLLHLDGTSATSKKRTLRRFSYSKYQIKNVALETAGTIDLDVEIKFQMGDEHYSIDVHKKHIEELKDLYKALLKIEEISYDNDITLQYAHKSLDMASNAFSRISNAQVNLAEQFKEMNEIAFNWLVDTKKQYNVKDYGFVFEKFINN, MGSDKIHHHHHHMFKLIIVEDEHLIRKWLEIAVDYSALGIQVVGTASHGQEGMKLIQEKEPHIVLTDITMPIMDAFMMFEATRTLSYEKVILSGYNDFQNAKKAMQYGAVDFLSKPIDTKELTECLQKIVLRLRVSTRQETPFLEEYQTLLTSIQQIDTQNQIIQQILEFVHQHYCMHFTISSIAENLGYSESYLYKVIKEDFPMTLNEYILRYRLKQAIDKMAESPNSPLSDISEQIGFSDYKYFAKVFKKYLHISPKELKLMDKNH, MGSDKIHHHHHHMFLLPSTITRNVIFISHATPEDNDFTIWLASRLQAEGFEVWIDKQALVGGEKFWQEIDQVIRHKAVKFLLVYSENICYQKQRGILKNGVAKEISMAEGIATTNGLKDFMILLNVDGSEYNLFIGADTLNQVPFYENWAGGYSQLRKKFKKEGLEPTGSPVGDFSKWYEDEYVIHHGIENLHEIYYDCWWPIPELPESFFVYIFPNNVVASQVHQRSKYPTGKASNILASFYDTSEFEVEIDGQLERIPFTAKHEIKVSDVIARTVRLGFPGTRDVENYFRSLLQRTFHLIMKERHLHWYEMANMKQAYFFSAKSHPKIKFEYPHRATKAGKSKVIFGKHLSSFWHYALSAKPIITPQLAFGLKSHIVFTTDGVKLWDDKAKMHTARRRKGRLMFNEEWRDLLFAFLHALCQGGTTVNIMLNPTFELALKPWTNTYHSDFGYIEPKGQDRHDILAAEYEYQDREDIDPDEVANV, MGSDKIHHHHHHMFRLAKEELEKLGAMITATEIYQQPGLWKEAHQLYFDQLEKIESFLKSIKEKHDFVHVVFTGAGTSDFVGQSIANYLNQVNDLKHIRFSAIGTVELVSRPHDYLQADLPTILVSFARSGNSPESVAAVEVAKQLVDKLYQVTITCAPEGKLALAAEGDVENLLLLQPAGSNDKGFAMTGSYSCMALTALLVFSPASQEEKAAWVEIIARLGQDVLDREDYVQDLINLDFERVIYLGSGGFYGLAHEAQLKILELTAGKIATMYESPLGFRHGPKSFINEKTLIFLFASNDAYTRQYDVDLLNEVHGDGIAERIVALSADKLVGTEAANFVLAEGGADLPDVFLTFPYILFAQTVSIMAAIKCNNLPDTPSPTGTVNRVVQGVIIHPLEK
